Results published in patent US20220403041A1 (Sanofi, published 2022).

T1: soluble CD73 dimer (human, UniProt P21589 27-549, limits assumed)
T1 construct: CD73 in the flow (SPR) or in solution (BLI binning); also called soluble human CD73
T1 sequence: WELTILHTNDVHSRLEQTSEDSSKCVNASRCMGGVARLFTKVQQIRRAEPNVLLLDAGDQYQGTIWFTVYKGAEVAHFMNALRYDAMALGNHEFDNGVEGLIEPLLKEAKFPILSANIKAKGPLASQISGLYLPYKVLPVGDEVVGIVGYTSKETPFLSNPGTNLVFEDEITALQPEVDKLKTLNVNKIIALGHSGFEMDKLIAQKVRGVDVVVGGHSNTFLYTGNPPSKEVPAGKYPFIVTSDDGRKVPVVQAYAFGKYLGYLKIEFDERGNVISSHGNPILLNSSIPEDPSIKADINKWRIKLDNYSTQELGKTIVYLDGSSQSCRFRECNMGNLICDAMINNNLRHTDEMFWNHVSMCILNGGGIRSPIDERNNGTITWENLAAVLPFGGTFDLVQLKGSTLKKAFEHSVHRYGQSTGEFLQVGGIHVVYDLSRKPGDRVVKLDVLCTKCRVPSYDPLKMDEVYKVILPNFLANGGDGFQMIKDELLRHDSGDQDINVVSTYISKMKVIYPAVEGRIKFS

T2: human CD73 on COR-L23 lung carcinoma cells (human) (UniProt P21589)
T2 sequence: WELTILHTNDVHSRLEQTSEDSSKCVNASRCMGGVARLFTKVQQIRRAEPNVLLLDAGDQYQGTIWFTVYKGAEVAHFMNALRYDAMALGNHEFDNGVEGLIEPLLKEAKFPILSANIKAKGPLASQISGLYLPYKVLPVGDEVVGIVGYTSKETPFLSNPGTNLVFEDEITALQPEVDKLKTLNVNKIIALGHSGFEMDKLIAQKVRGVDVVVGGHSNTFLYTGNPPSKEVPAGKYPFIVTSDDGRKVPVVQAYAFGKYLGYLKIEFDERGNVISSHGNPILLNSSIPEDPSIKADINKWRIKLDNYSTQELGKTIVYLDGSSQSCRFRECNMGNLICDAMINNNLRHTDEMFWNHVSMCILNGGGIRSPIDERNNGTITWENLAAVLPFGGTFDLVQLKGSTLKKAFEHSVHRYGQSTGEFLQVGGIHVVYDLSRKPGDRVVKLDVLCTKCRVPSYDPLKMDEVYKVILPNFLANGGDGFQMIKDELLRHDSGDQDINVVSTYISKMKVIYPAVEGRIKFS

T3: human CD73 on COR-L23 lung carcinoma cells (human, UniProt P21589 27-549)
T3 sequence: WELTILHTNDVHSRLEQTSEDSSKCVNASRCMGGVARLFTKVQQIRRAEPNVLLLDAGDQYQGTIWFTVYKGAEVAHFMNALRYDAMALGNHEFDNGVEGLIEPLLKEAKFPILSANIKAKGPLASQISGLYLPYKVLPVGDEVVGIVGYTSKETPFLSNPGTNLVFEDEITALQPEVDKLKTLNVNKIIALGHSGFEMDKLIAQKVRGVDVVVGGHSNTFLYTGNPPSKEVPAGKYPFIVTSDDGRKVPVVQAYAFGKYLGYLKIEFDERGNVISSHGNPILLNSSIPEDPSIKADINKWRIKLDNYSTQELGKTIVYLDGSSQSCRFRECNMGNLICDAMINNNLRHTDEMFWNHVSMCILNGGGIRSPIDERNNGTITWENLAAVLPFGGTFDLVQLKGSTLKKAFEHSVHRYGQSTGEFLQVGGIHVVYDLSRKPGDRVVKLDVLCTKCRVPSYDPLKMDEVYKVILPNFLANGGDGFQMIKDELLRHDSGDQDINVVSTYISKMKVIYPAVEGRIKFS


Tests used:
soluble CD73 dimer [1] = molecular target: T1, soluble CD73 dimer; test: SPR, antibody captured on chip, CD73 in flow; biphasic fit, share after 300 s binding phase of the component with ka 5.31E+06 1/Ms
soluble CD73 dimer [2] = molecular target: T1, soluble CD73 dimer; test: SPR, antibody captured on chip, CD73 in flow; biphasic fit, share by T0 intercept of the component with kd 2.46E-04 1/s
soluble CD73 dimer [3] = molecular target: T1, soluble CD73 dimer; test: SPR, antibody captured on Protein A chip, CD73 in flow; Langmuir 1:1 fit
[4] = molecular target: T2, human CD73 on COR-L23 lung carcinoma cells (human)
soluble CD73 dimer [5] = molecular target: T1, soluble CD73 dimer; test: SPR, antibody captured on Protein A chip, CD73 in flow; biphasic fit, component of abundance 100%
soluble CD73 dimer [6] = molecular target: T1, soluble CD73 dimer; test: SPR, antibody captured on chip, CD73 in flow; biphasic fit, share after 300 s binding phase of the component with ka 7.03E+05 1/Ms
soluble CD73 dimer [7] = molecular target: T1, soluble CD73 dimer; test: SPR, antibody captured on Protein A chip, CD73 in flow; biphasic fit, component of abundance 45%
soluble CD73 dimer [8] = molecular target: T1, soluble CD73 dimer; test: SPR, antibody captured on Protein A chip, CD73 in flow; biphasic fit, component of abundance 55%
[9] = molecular target: T2, human CD73 on COR-L23 lung carcinoma cells (human); test: cell-based or functional assay
soluble CD73 dimer [10] = molecular target: T1, soluble CD73 dimer; test: SPR, antibody captured on Protein A chip, CD73 in flow; Langmuir ka with major component kd
[11] = molecular target: T3, human CD73 on COR-L23 lung carcinoma …; test: cell-based or functional assay

abundance of association component (biphasic fit) (soluble CD73 dimer [1]) [%]	abundance of dissociation component (biphasic fit) (soluble CD73 dimer [2]) [%]	koff (soluble CD73 dimer [3]) [s⁻¹]	kon (soluble CD73 dimer [3]) [M⁻¹ s⁻¹]	% inhibition of CD73 activity at 1 µg/ml antibody (COR-L23 cells, 4 h, LC/MS); cell TB19 x H7 [4] [%]	koff (soluble CD73 dimer [5]) [s⁻¹]	abundance of association component (biphasic fit) (soluble CD73 dimer [6]) [%]	kon (soluble CD73 dimer [7]) [M⁻¹ s⁻¹]	kon (soluble CD73 dimer [8]) [M⁻¹ s⁻¹]	EC50 (nM) of inhibition of CD73 activity (adenosine by LC/MS) [9] [nM]	Max Inhib. (projected maximal inhibition at saturating antibody) [9] [%]	Kd (soluble CD73 dimer [10]) [pM]	EC50 (nM) of inhibition of CD73 activity (adenosine by LC/MS) [11] [nM]	Binder
45	100	0.000149	752000	93	0.000246	55	5.31e+06	703000	0.27	95	328		TB19/H7 (bispecific antibody, part only; not given: H7 arm; constant regions, V domains shown, part only) VH: QEQLQESGPGLVKPSETLSLTCTVSGGSIRNNYYNWIRQPAGKGLEWIGRIYISGTTNSNPSLKSRVTMSIDTSKNQFSLKLSSVTAADTAIYYCAREHYVSGTSLDNWGQGTLVTVSS VL: EIVMTQSPTTLSLSPGERATLSCRASQSVNTNYFSWYQQKPGLTPRLLIYGTSTRATGIPARFSGSGSGTDFTLTISSLQPEDFGIYYCQQDYNLPYTFGQGTYLEIK
		0.000102	184000								555	0.777	TB19/TB38 (bispecific antibody, V domains shown, Biparatopic human IgG1 made by Fab-arm exchange; also called TB19/TB38 biparatopic antibody) VH 1: QEQLQESGPGLVKPSETLSLTCTVSGGSIRNNYYNWIRQPAGKGLEWIGRIYISGTTNSNPSLKSRVTMSIDTSKNQFSLKLSSVTAADTAIYYCAREHYVSGTSLDNWGQGTLVTVSS VL 1: EIVMTQSPTTLSLSPGERATLSCRASQSVNTNYFSWYQQKPGLTPRLLIYGTSTRATGIPARFSGSGSGTDFTLTISSLQPEDFGIYYCQQDYNLPYTFGQGTYLEIK VH 2: QVQLVESGGGVVQPGRSLRLSCAASGFTFSSYGMHWVRQAPGKGLEWVAVFWYDGSNKYYADSVKGRFTISRDNSKNTLYLQMNSLSAEDTAVYYCARAPNWDDAFDIWGQGTMVTVSS VL 2: QTVVTQEPSFSVSPGGTVTLTCGLSSGSVSTSYYPNWYQQTPGQAPRTLIYSTNTRSSGVPDRFSGSILGNKAALTITGAQADDESDYYCVLFMGSGIWVFGGGTKLTVL
